How the values were obtained:
[1] = target: T1, GPC3 on the surface of hepatic cancer cell lines (SK-Hep1-GPC3 transfectant, HepG2, Huh7, Hep3B, SNU398) (human, UniProt P51654 25-554); test: FACS, SK-Hep1-GPC3 #9 cells, 1 ug antibody; lower left panel
T1 construct: Species is not restated for the cells (hepatic cancer cell lines, or SK-Hep1 transfected with pCMV/GPC3); also called glypican 3
Procedure: (§1) After detaching SK-Hep1-GPC3 cells by adding a TrypLE Express solution thereto, the detached SK-Hep1-GPC3 cells were put into a 50 mL tube and centrifuged at room temperature and 2000 rpm for 3 minutes to remove a culture medium, followed by washing with PBS once. The resultant was suspended using a FACS buffer, transferred to a round bottom tube, and centrifuged at room temperature and 2000 rpm for 3 minutes. A supernatant was removed, and the resultant was suitably dissolved using the FACS buffer so as to have a concentration of 4×10⁵ ea/mL. Then, a candidate antibody (1 μg) was added thereto at 4° C., and in an […] control group, a human IgG (1m, Sigma) was added instead of the candidate antibody. After 1 hour, the resultant was washed with the FACS buffer two times, a goat anti-human IgG antibody and FITC conjugated were added thereto at an amount of 1 μL per sample and bound thereto at 4° C. for 30 minutes. After collecting cells by centrifugation at 2000 rpm for 3 minutes, the cells were re-suspended by adding a fixation buffer (500 μL), and measured using a FACS calibur (FIG. 5).

[2] = target: T1, GPC3 on the surface of hepatic cancer …; test: FACS, HepG2 cells, 1 ug antibody; lower left panel (Human naive library)
[3] = target: T1, GPC3 on the surface of hepatic cancer …; test: FACS, HepG2 cells, 1 ug antibody; lower right panel
[4] = target: T2, recombinant human GPC3 (Cat. No. 2119-GP-050, R&D systems) purified from HEK293 cells (human, UniProt P51654 25-559); test: SPR, Biacore T-200, GPC3 immobilised on CM5 chip, antibody flowed 0.078-5 nM
T2 construct: Bought protein
Procedure: Quantitative binding capacity (affinity) of GX102 and GX270 clone antibodies, purified anti-GPC3 antibodies, to recombinant human GPC 3 was measured using a Biacore T-200(GE Healthcare, U.S.) biosensor. After immobilizing GPC3 (Cat. No. 2119-GP-050, R&D systems) purified from HEK293 cells onto a CM5 chip (GE Healthcare) to an Rmax of 200 using an amine-carboxyl reaction, the GX102 or GX270 antibody sequentially diluted in a HBS-EP buffer solution (10 mM HEPES, pH7.4, 150 mM NaCl, 3 mM EDTA, 0.005% surfactant P20) was flowed at a flow rate of 30 μL/min in a concentration range of 0.078 nM to 5 nM for an association time of 120 seconds and a dissociation time of 1800 seconds. Dissociation of the antibody bound to GPC3 was induced by flowing 10 mM Glycine-HCl (pH1.5) at a flow rate of 30 μL/min for 30 seconds (Table 3). Affinity was obtained as kinetic rate constants (Kₒₙ and Koff) and an equivalent dissociation constant (KD) using a Biacore T-200 evaluation software (Table 4).

[5] = target: T1, GPC3 on the surface of hepatic cancer …; test: FACS, SK-Hep1-GPC3 cells, 1 ug antibody; lower right panel
Procedure: as §1

Row | Mean, FL2-H [1] | Mean, FL2-H [2] | Mean, FL2-H [3] | Kd [4] | Mean, FL2-H [5] | Binder
1 | 11.6 | 52.2 | – | – | – | clone GX122 (scFv, V domains shown, scFv library clone tested as culture supernatant) VH: EVQLVESGAEVKKPGASVKVSCKASGYTFTSYYMHWVRQAPGQGLEWMGIINPSGGSTSYAQKFQGRVTMTRDTSTSTVYMELSSLRSEDTAVYYCARDGGSSPDIWGQGTMVTVSS VL: SYELTQPPSVSVSPGQTARITCSGDALPKKYAYWYQQKSGQAPVLVIYEDKKRPSEIPERFSGSSSGTMATLTITGAQVDDEADYYCYSIDRSGSRGVFGGGTKLTVLG
2 | – | – | 14.5 | 0.07 nM | 174 | GX270 clone antibody (purified anti-GPC3 antibody) (antibody, V domains shown, Purified antibody; also called GX270 antibody; GX270 candidate antibody) VH: QVQLVQSGAEVKKPGASVKVSCKTSGYTFTSSYMHWVRQAPGQGLEWMGIINPNSRGTNYAQKFQGRVTMTSDTSISTAYMELSSLISDDTAVYYCASSSGDYPDYWGQGTLVTVSS VL: SYELTQPPSVSVSPGQTARIACSGDALPKHYAYWYQQKSGQAPVLVVYEDKKRPAGIPERFSGSSSGTVATLTISGAQVEDEAHYYCYSTDTSGNHRVFGGGTKLTVLG
3 | – | – | 18.7 | 0.0092 nM | 317 | GX102 clone antibody (purified anti-GPC3 antibody) (antibody, V domains shown, Purified antibody; also called GX102 antibody; GX102 candidate antibody) VH: not shown VL: GQSVLTQPPSASETPGQKVTISCSGSSSNIGTNHVFWYQQLPGTAPKLLIYRNNLRPSGVPDRFSGSKSGTSASLAISGLRSEDEADYYCAAWDDSLSWVFGGGTKLTVLG
